Reference: US20170008962A1 (Dana-Farber, published 2017)

T1: soluble, recombinant MICB with a single BirA biotinylation site (human, UniProt Q29980 23-309)
T1 sequence (looked up): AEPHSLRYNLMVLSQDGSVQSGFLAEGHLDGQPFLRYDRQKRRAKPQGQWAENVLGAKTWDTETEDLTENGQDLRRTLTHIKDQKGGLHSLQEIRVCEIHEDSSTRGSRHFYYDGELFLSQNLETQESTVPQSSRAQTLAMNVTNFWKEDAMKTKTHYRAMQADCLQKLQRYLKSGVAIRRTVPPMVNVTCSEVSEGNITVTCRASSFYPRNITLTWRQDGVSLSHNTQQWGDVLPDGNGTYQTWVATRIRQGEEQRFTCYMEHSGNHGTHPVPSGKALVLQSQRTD

T2: Ang-like-3 (human, UniProt Q9Y5C1 17-460)
T2 sequence (looked up): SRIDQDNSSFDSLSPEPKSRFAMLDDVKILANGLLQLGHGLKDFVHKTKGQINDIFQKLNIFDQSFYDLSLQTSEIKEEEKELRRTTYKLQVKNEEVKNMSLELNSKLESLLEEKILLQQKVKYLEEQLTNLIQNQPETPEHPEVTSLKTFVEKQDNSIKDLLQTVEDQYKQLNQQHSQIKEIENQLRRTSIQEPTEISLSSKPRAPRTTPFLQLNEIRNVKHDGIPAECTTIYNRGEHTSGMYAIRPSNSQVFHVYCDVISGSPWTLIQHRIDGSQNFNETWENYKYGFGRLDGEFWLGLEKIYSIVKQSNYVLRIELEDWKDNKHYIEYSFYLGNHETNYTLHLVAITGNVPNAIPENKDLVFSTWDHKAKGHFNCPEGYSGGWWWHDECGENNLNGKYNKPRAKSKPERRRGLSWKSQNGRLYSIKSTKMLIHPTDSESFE

T3: recombinant human angiopoietin-1 (human, UniProt Q15389 20-498)
T3 construct: also called Ang-1
T3 sequence (looked up): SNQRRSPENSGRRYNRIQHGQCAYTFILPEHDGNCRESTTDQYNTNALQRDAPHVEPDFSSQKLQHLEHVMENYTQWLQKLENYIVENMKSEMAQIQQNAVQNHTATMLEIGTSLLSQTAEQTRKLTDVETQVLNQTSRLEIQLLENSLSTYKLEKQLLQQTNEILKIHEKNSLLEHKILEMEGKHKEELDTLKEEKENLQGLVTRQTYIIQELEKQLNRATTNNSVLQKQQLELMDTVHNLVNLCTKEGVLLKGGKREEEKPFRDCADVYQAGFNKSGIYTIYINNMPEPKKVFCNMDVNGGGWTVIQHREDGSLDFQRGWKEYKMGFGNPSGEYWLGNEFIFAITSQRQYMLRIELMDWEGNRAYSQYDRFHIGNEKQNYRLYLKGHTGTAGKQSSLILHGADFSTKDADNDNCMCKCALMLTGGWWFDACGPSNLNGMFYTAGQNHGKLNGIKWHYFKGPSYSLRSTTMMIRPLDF

T4: recombinant human angiopoietin-2 (human, UniProt O15123 19-496)
T4 construct: also called Ang-2
T4 sequence (looked up): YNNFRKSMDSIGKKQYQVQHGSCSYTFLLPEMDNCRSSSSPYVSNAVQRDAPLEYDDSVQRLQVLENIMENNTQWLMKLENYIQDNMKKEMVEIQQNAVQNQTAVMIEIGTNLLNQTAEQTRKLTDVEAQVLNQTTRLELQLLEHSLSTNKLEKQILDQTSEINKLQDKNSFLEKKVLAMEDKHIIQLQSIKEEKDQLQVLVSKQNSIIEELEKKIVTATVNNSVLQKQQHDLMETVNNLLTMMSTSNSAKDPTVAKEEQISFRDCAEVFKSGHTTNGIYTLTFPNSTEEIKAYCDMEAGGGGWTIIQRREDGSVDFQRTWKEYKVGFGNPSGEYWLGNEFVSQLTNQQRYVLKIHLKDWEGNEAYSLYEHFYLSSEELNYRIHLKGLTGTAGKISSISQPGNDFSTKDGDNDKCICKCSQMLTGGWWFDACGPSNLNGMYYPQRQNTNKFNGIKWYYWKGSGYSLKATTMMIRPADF

T5: recombinant human angiopoietin-4 (human, UniProt Q9Y264 25-503)
T5 construct: also called Ang-4; Ang4
T5 sequence (looked up): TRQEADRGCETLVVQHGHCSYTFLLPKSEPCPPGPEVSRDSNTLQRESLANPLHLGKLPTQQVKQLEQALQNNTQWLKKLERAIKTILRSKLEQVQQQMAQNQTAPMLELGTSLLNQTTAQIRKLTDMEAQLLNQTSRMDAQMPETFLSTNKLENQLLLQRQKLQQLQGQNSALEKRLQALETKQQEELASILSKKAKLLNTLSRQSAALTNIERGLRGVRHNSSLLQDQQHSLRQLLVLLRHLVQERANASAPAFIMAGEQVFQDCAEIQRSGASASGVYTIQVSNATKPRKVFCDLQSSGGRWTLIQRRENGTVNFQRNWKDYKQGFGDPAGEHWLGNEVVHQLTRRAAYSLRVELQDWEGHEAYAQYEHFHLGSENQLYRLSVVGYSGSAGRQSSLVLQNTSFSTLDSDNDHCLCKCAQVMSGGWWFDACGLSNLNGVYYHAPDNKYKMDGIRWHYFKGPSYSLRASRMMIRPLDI


Assays:
[1] = biological target: T1, soluble, recombinant MICB with a single …; assay: cytometric bead assay, biotinylated protein on streptavidin beads, FITC anti-human IgG
[2] = biological target: T2, Ang-like-3; assay: ELISA, protein coated on plate, anti-human IgG-Europium
[3] = biological target: T3, recombinant human angiopoietin-1; assay: ELISA, angiopoietin coated at 4 µg/mL, antibody 20 µg/mL-0.16 µg/mL, anti-human IgG-Europium
[4] = biological target: T4, recombinant human angiopoietin-2; assay: as above
[5] = biological target: T5, recombinant human angiopoietin-4; assay: as above
[6] = biological target: T3, recombinant human angiopoietin-1; assay: ELISA, protein coated at 4 µg/ml, antibody at 20, 4, 0.8 and 0.16 µg/ml, europium conjugated anti-human IgG
[7] = biological target: T4, recombinant human angiopoietin-2; assay: as above
[8] = biological target: T5, recombinant human angiopoietin-4; assay: as above

Binder	binding result [1]	binding result [2]	binding result [3]	binding result [4]	binding result [5]	further results
CM24002 Ab4 (anti-MICA antibody ID-7 of Table 1) (antibody, V domains shown) VH: QVQLQESGPGLVKPSGTLSLTCAVSGASITNGAWWSWVRQPPGKGLEWIGEIYLNGNTNSNPSLKSRVIISVDKSKNHFSLTLNSVTAADTAVYYCAKNAAYNLEFWGQGALVTVSS VL: EIVLTQSPGTLSLSPGERATLSCRASQTVSSPYVAWYQQKRGQAPRLLIYGASTRATGIPDRFSGSGSGTDFTLTISRLEPEDFAVYYCQQYDRSYYYTFGQGTKLEIK	binds	–	–	–	–	–
CM24002 Ab2 (anti-MICA antibody ID-6 of Table 1) (antibody, V domains shown) VH: QVQLQESGPGLVEPSGTLSLTCTVSGGSISRSNWWSWVRQPPGEGLEWIGEIHHIGRSSYNPSLKSRVTMSVDKSQNQFSLRLTSVTAADTAVYYCAKNGYYAMDVWGQGTTVTVSS VL: EIVLTQSPGTLSLSPGERATLSCRASQSVSSDFLAWYQQKPGQAPRLLIYATSFRATGISDRFSGSGSGTDFSLTINRLEPEDFAVYYCQHYRSSPPWYTFAQGTKLDMRRTVAAPSV	binds	–	–	–	–	–
anti-Ang2 Ab6 (antibody ID-10 of Table 1, anti-angiopoietin-2 antibody) (antibody, V domains shown, also called anti-Ang6 Ab2) VH: EVQLVESGGGLIQPGGSLRLSCAASGFLISSYFMSWVRQAPGKGPEWVSVIYSDGSTYYVDSVKGRFTISTDNSKNTLYLQMNSLRAEDTARYYCATRHLNYDGDHWGQGTLVTVSS VL: DVVMTQSPLSLPVTLGQPASISCRSSQSLVHSDGNTYLNWFHQRPGQSPRRLIYKVSKRDSGVPDRFSGSGSGSDFTLKISRVEAEDVGIYYCMQGTHWPTFGQGTKVEIKR	–	–	–	–	–	binding result [6]: binds; binding result [7]: binds; binding result [8]: binds

More lines, main results first:

binding result [1]	binding result [2]	binding result [3]	binding result [4]	binding result [5]	Binder	further results
–	no binding (tested: 20 µg/mL-0.16 µg/mL)	binds	binds	binds	antibody ID 3 (anti-angiopoietin-2 antibody) (antibody, V domains shown) VH: EVQLVESGGGLVQPGGSLRLSCAASGFTFSNNWMHWVRQAPGKGLEWISEIRSDGNFTRYADSMKGRFTISRDNAKSTLYLQMNSLRVEDTGLYYCARDYPYSIDYWGQGTLVTVSS VL: DIVMTQTPLSSPVTLGQPASISCTSSQSLVHSNGNTYLSWLQQRPGQPPRLLIYEISKRVSGVPDRFSGSGAGTDFTLKISRVEAEDVGVYYCMQGKQLRTFGQGTKLEIK	–
binds	–	–	–	–	CM33322 Ab11 (anti-MICA antibody ID-8 of Table 1) (antibody, V domains shown) VH: QVQLQESGPGLVKPSENLSLTCTVSDASMSDYHWSWIRQAAGKGLEWIGRMYSTGSPYYKPSLKGRVTMSIDTSKNQFSLKLASVTAADTAIYYCASGQHIGGWVPPDFWGQGTLVTVSS VL: DIVMTQTPLSSPVTLGQPASISCRSSEGLVYSDGDTYLSWFHQRPGQPPRLLIYKISNRFSGVPDRFSGSGAGTDFTLKISRVEAEDVGVYYCMQATHFPWTFGQGTKVEVKR	–
–	no binding (tested: 20 µg/mL-0.16 µg/mL)	binds	binds	binds	antibody ID 2 (anti-angiopoietin-2 antibody) (antibody, V domains shown) VH: EVQLVESGGGLVQPGGSLRLSCAASGFTFSSYAMSWVRQAPGKGLEWVSGIYWSGGSTYYADSVKGRFTISRDISKNTLYLQMNSLRADDTAVYYCARGDYYGSGAHFDYWGQGTLVTVSS VL: not shown	–
–	no binding (tested: 20 µg/mL-0.16 µg/mL)	binds	binds	binds	antibody ID 5 (anti-angiopoietin-2 antibody) (antibody, V domains shown) VH: EVQLVESGGGLIQPGGSLRLSCATSGFTFRTSSMSWVRRAPGKGLEWVSAIGAESHDTHYTDSAEGRFTISKDYSKNTVYLQMNGLRVDDTAIYYCAHHYYYGSRQKPKDWGDAFDMWGQGTMVSVSS VL: DIQMTQSPSSVSASVGDRVTITCRASQDISTWLTWYQQRAGKAPNLLIYGASTLEDGVPSRFSGSGSGTDFTLTIDSLQPDDFATYYCQQSHSFPYTFGQGTQLGIS	–
–	no binding (tested: 20 µg/mL-0.16 µg/mL)	binds	binds	binds	antibody ID 4 (anti-angiopoietin-2 antibody) (antibody, V domains shown) VH: EVQLVESGGGLVQPGGSVRLSCAASGFILSNFAMSWVRQAPGKGLDWVSGNFGGRENTYYADSVKGRFTISRDSSKSTLYLQMNNLRAEDTAVYYCARGDYHGSGAHFDYWGQGILVTVSS VL: DIVMTQSPLSSPVILGQPASISCRSSQSLLHSDGNTYLSWLHQRPGQPPRLLIYQISNRFSGVPDRFSGSGTGTDFTLKISRVEAEDAGIYYCMQGTEFPRTFGQGTKVEIK	–
